Where two headings read alike, the source gives them in different places. No end group written: not given here.
Assays:
[1] = target: T1, SNORF72 (Homo sapiens, UniProt Q9GZQ4, A395T); test: Intracellular Ca2+ release (FLIPR) in SNORF72-transfected COS-7 cells; assay type: cell-based; conditions: SNORF72, data not shown
T1 construct: expressed in transfected cells; host or cells: COS-7 (transient, DEAE-dextran)
Protocol: (§1) A typical protocol for the DEAE-dextran method as applied to COS-7 and HEK293 cells is described as follows. Cells to be used for transfection are split 24 hours prior to the transfection to provide flasks which are 70–80% confluent at the time of transfection. Briefly, 8 μg of receptor DNA plus 8 μg of any additional DNA needed (e.g. Gα protein expression vector, reporter construct, antibiotic resistance marker, mock vector, etc.) are added to 9 ml of complete DMEM plus DEAE-dextran mixture (10 mg/ml in PBS). Cells plated into a T225 flask (sub-confluent) are washed once with PBS and the DNA mixture is added to each flask. The cells are allowed to incubate for 30 minutes at 37° C., 5% CO2. Following the incubation, 36 ml of complete DMEM with 80 μM chloroquine is added to each flask and allowed to incubate an additional 3 hours. The medium is then aspirated and 24 ml of complete medium containing 10% DMSO for exactly 2 minutes and then aspirated. The cells are then washed 2 times with PBS and 30 ml of complete DMEM added to each flask. The cells are then allowed to incubate over night. The next day the cells are harvested by trypsinization and reseeded into 96 well plates.
(§2) Cells expressing the receptor of interest are plated into clear, flat-bottom, black-walled 96-well plates (Costar) at a density of 80,000–150,000 cells per well and allowed to incubate for 48 hr at 5% CO2, 37° C. The growth medium is aspirated and 100 μL of loading medium containing Fluo-3 dye is added to each well. The loading medium contains: 20 mM HEPES (Sigma), 0.1% BSA (Sigma), dye/pluronic acid mixture (e.g. 1 mM Fluo-3/AM (Molecular Probes) and 10% pluronic acid (Molecular Probes) mixed immediately before use), and 2.5 mM probenecid (Sigma)(prepared fresh). The cells are allowed to incubate for about 1 hour at 5% CO2, 37° C.
(§3) The compounds of interest are diluted in wash buffer (Hank's BSS (without phenol red), 20 mM HEPES, 2.5 mM probenecid) to a 4× final concentration and aliquoted into a clear v-bottom plate (Nunc). Following the dye incubation, the cells are washed 4 times to remove excess dye using a Denley plate washer. 100 μL final volume of wash buffer is then added to each cell well. Compounds are added to the cell plates and responses are measured using the FLIPR™ instrument. The data are then collected and analyzed using the FLIPR™ software and Graphpad Prism.
(§4) COS-7 cells were transiently transfected with SNORF62, SNORF72 or vector DNA (mock) as described in Materials and Methods.

[2] = target: T1, SNORF72; test: Displacement of [125I]rat NMU-23 binding in SNORF72-transfected COS-7 membranes; conditions: for displacement of [125I]rat NMU-23 binding: SNORF72 membranes
Protocol: (§5) The specifics of preparing such cell membranes may in some cases be determined by the nature of the ensuing assay but typically involve harvesting whole cells and disrupting the cell pellet by sonication in ice cold buffer (e.g. 20 mM Tris HCl, mM EDTA, pH 7.4 at 4° C.). The resulting crude cell lysate is cleared of cell debris by low speed centrifugation at 200×g for 5 min at 4° C. The cleared supernatant is then centrifuged at 40,000×g for 20 min at 4° C., and the resulting membrane pellet is washed by suspending in ice cold buffer and repeating the high speed centrifugation step. The final washed membrane pellet is resuspended in assay buffer. Protein concentrations are determined by the method of Bradford (1976) using bovine serum albumin as a standard. The membranes may be used immediately or frozen for later use.
(§6) Radioligand binding assays were performed by diluting membranes prepared from cells expressing the receptor in 50 mM Tris buffer (pH=7.4 at 0° C.) containing 0.1% bovine serum albumin (Sigma), aprotinin (0.005 mg/ml, Boehringer Mannheim) and bestatin (0.1 mM, Sigma) as protease inhibitors. The final protein concentration in the assay was 12–40 μg/ml. […] The bound ligand was separated from free by filtration through GF/B filters presoaked in 0.5% polyethyleneimine (PEI), using a Tomtec (Wallac) vacuum filtration device. After addition of Ready Safe (Beckman) scintillation fluid, bound radioactivity was quantitated using a Trilux (Wallac) scintillation counter (approximately 40% counting efficiency of bound counts). Data was fit to non-linear curves using GraphPad Prism.
(§7) In this manner, agonist or antagonist compounds that bind to the receptor may be identified as they inhibit the binding of the labeled ligand to the membrane protein of cells expressing the said receptor. Non-specific binding was defined as the amount of radioactivity remaining after incubation of membrane protein in the presence of 100 nM of the unlabeled peptide corresponding to the radioligand used. In equilibrium saturation binding assays membrane preparations or intact cells transfected with the receptor are incubated in the presence of increasing concentrations of the labeled compound to determine the binding affinity of the labeled ligand.

[3] = target: T2, SNORF62 (Homo sapiens, UniProt Q9HB89); test: Intracellular Ca2+ release (FLIPR) in SNORF62-transfected COS-7 cells; assay type: cell-based; parameters: The SNORF62 cDNA codes for a protein of 426 amino acids; expressed in transfected cells; host or cells: COS-7 (transient, DEAE-dextran); conditions: SNORF62, data not shown
T2 sequence (Q9HB89 1-426): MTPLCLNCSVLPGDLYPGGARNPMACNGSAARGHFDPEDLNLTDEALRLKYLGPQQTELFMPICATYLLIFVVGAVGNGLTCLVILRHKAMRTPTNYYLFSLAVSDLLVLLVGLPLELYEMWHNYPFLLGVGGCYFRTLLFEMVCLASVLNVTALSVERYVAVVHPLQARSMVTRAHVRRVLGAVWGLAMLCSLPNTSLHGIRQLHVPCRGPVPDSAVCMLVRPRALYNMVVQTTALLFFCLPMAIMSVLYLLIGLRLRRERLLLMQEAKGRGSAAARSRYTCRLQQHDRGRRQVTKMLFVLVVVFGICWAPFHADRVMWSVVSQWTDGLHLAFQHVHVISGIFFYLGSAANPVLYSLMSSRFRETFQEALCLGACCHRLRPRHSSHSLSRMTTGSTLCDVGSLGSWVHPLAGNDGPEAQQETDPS
Protocol: as §1, §2, §3, §4

[4] = target: T2, SNORF62; test: Displacement of [125I]rat NMU-23 binding in SNORF62-transfected COS-7 membranes; parameters: The SNORF62 cDNA codes for a protein of 426 amino acids; expressed in transfected cells; host or cells: COS-7 (transient, DEAE-dextran); conditions: for displacement of [125I]rat NMU-23 binding: SNORF62 membranes
Protocol: as §5, §6, §7

[5] = target: T3, human SNORF62 receptor (human, UniProt Q9HB89 1-426); test: displacement of [125I]rat NMU-23, membranes of SNORF62-transfected COS-7 cells
T3 sequence: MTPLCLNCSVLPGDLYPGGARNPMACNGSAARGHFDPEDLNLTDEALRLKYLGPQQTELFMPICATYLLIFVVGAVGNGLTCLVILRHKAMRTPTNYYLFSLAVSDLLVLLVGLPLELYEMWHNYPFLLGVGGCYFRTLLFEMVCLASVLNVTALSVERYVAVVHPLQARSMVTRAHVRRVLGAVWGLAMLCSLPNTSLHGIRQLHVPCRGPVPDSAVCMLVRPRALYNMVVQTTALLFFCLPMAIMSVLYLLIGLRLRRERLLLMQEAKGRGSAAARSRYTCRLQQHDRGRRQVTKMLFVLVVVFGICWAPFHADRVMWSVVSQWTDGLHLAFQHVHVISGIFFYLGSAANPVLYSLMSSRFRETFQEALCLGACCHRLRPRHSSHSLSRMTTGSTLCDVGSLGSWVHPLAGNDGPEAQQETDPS
Protocol: as §6, with “µg/ml.” for “μg/ml.”

[6] = target: T4, human SNORF72 receptor (human, UniProt Q9GZQ4 1-415); test: displacement of [125I]rat NMU-23, membranes of SNORF72-transfected COS-7 cells
T4 sequence (Q9GZQ4 other isoform, or with tags, fused parts or gaps): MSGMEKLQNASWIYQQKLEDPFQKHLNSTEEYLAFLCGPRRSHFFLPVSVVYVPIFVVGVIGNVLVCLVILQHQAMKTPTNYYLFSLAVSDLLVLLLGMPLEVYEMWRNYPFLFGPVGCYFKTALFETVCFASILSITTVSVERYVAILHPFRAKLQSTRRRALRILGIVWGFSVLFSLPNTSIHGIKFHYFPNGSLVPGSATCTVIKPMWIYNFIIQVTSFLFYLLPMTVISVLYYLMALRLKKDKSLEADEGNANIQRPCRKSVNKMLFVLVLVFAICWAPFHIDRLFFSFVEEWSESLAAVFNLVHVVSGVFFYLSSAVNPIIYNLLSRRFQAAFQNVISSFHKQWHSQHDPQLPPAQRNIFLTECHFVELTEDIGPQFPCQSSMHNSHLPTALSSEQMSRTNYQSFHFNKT
Protocol: as §6, with “µg/ml.” for “μg/ml.”

[7] = target: T3, human SNORF62 receptor; test: displacement of [125I]rat NMU-23 (0.05-0.1 nM), membranes of SNORF62-transfected COS-7 cells, n=2
Protocol: as §6, with “µg/ml.” for “μg/ml.”

[8] = target: T4, human SNORF72 receptor; test: displacement of [125I]rat NMU-23 (0.05-0.1 nM), membranes of SNORF72-transfected COS-7 cells, n=2
Protocol: as §6, with “µg/ml.” for “μg/ml.”

[9] = target: T3, human SNORF62 receptor; test: cell-based or functional assay
[10] = target: T3, human SNORF62 receptor; test: cell-based or functional assay; remark: listed apart in the source
[11] = target: T4, human SNORF72 receptor; test: cell-based or functional assay

T1 sequence (Q9GZQ4 whole entry A395T): as the sequence (Q9GZQ4 other isoform, or with tags, fused parts or gaps) above

Row | Molecule | activate the receptors in transfected COS-7 cells [1] | displacement of [125I]rat NMU-23 binding [2] | activate the receptors in transfected COS-7 cells [3] | displacement of [125I]rat NMU-23 binding [4] | Ki [5] | Ki [6] | pKi [7] | pKi [8] | other results
1 | CC[C@H](C)[C@H](NC(=O)[C@H](CO)NC(=O)[C@H](CC(N)=O)NC(=O)[C@H](CC(C)C)NC(=O)[C@H](Cc1ccc(O)cc1)NC(=O)[C@H](CCCCN)NC(=O)[C@H](CCCCN)NC(=O)[C@@H](NC(=O)[C@H](C)NC(=O)[C@H](CCSC)NC(=O)[C@H](CCC(N)=O)NC(=O)[C@H](CCCCN)NC(=O)[C@H](CCCNC(=N)N)NC(=O)[C@H](CC(C)C)NC(=O)[C@H](CCCNC(=N)N)NC(=O)[C@@H](NC(=O)[C@H](Cc1ccc(O)cc1)NC(=O)[C@H](CC(N)=O)NC(=O)[C@H](CC(=O)O)NC(=O)[C@@H](NC(=O)[C@H](Cc1ccccc1)NC(=O)[C@@H](NC(=O)[C@H](C)NC(=O)[C@H](CC(=O)O)NC(=O)[C@H](CO)NC(=O)[C@@H](N)Cc1c[nH]cn1)C(C)C)[C@@H](C)O)[C@@H](C)O)C(C)C)C(=O)N[C@@H](CC(C)C)C(=O)N[C@@H](CC(N)=O)C(N)=O [VIP] | did not | did not displace binding | did not | did not displace binding |  |  |  |  | 
2 | CC[C@H](C)[C@H](NC(=O)[C@H](Cc1ccc(O)cc1)NC(=O)[C@H](CCCNC(=N)N)NC(=O)[C@H](CCCNC(=N)N)NC(=O)[C@H](CC(C)C)NC(=O)[C@H](CCC(N)=O)NC(=O)[C@@H](NC(=O)[C@H](CCC(=O)O)NC(=O)[C@H](Cc1ccc(O)cc1)NC(=O)[C@H](CCC(N)=O)NC(=O)[C@H](C)NC(=O)[C@H](CCCNC(=N)N)NC(=O)[C@H](CCC(N)=O)NC(=O)[C@H](CCC(=O)O)NC(=O)[C@H](Cc1c[nH]cn1)NC(=O)[C@@H](NC(=O)[C@H](C)NC(=O)[C@H](Cc1ccc(O)cc1)NC(=O)[C@H](CC(=O)O)NC(=O)CNC(=O)[C@@H]1CCCN1C(=O)[C@H](Cc1ccc(O)cc1)NC(=O)[C@H](CCSC)NC(=O)[C@@H]1CCCN1C(=O)[C@H](CCC(=O)O)NC(=O)[C@H](CC(C)C)NC(=O)[C@@H]1CCCN1C(=O)[C@H](C)N)[C@@H](C)O)[C@@H](C)O)C(=O)N[C@@H](CC(N)=O)C(=O)N[C@H](C(=O)N[C@@H](CC(C)C)C(=O)N[C@H](C(=O)N[C@@H](CCCNC(=N)N)C(=O)N1CCC[C@H]1C(=O)N[C@@H](CCCNC(=N)N)C(=O)N[C@@H](Cc1ccc(O)cc1)C(N)=O)[C@@H](C)O)[C@@H](C)O [rat PP] | did not | did not displace binding | did not | did not displace binding |  |  |  |  | Ki ([2]; binding affinity, SNORF72-transfected COS-7 cells, unit printed in cell (Table 1A), read-out: SNORF72 Avg Ki): > 10 µM; Ki ([2]; displacement of [125I]rat NMU-23 (0.05-0.1 nM), n = 2 (Table 2), read-out: SNORF72 Avg pKi (converted)): > 10 µM; Ki ([4]; binding affinity, SNORF62-transfected COS-7 cells, unit printed in cell (Table 1A), read-out: SNORF62 Avg Ki): > 10 µM; Ki ([4]; displacement of [125I]rat NMU-23 (0.05-0.1 nM), n = 2 (Table 2), read-out: SNORF62 Avg pKi (converted)): > 10 µM
3 | APSEPHHPGDQATQDQLAQYYSDLYQYITFVTRPRF-NH2 (C-terminus assumed) [frog PP] | did not | did not displace binding | did not | did not displace binding |  |  |  |  | 
4 | frog PP (peptide) |  |  |  |  | > 10 µM | > 10 µM | < 5 | < 5 | 
5 | HSDAVFTDNYTRLRKQMAVKKYLNSILN-NH2 (peptide, UniProt P01282 125-152, looked up, species assumed, ends and bridges not checked) [vasoactive intestinal peptide] |  |  |  |  | > 10 µM | > 10 µM | < 5 | < 5 | 
6 | FKVDEEFQGPIVSQNRRYFLFRPRN-NH2 (also called porcine neuromedin U-25) [porcine NMU-25] |  |  |  |  |  | 0.0018 µM | 9 | 8.7 | AVG EC50 (nM), stimulation of Ca++ release in SNORF62-transfected COS-7 cells (FLIPR) [9]: 5.2 nM; Avg EC50 (nM), stimulation of Ca2+ release in SNORF62-transfected COS-7 cells [10]: 5.2 nM; Avg EC50 (nM), stimulation of Ca2+ release in SNORF72-transfected COS-7 cells [11]: 3 nM
7 | APLEPMYPGDYATHEQRAQYETQLRRYINTLTRPRY (peptide, UniProt P06303 30-65, looked up, also called rat pancreatic polypeptide) [rat PP] |  |  |  |  | > 10 µM | > 10 µM | < 5 | < 5 | 
